Data from paper PMC3937308, “The Post-transcriptional Regulator rsmA/csrA Activates T3SS by Stabilizing the 5′ UTR of hrpG, the Master Regulator of hrp/hrc Genes, in Xanthomonas”.

Assays:
6HisRsmA (RsmAxcc) [1] = biological target: T1, 6HisRsmA (RsmAxcc) (Xanthomonas citri subsp. citri strain …, UniProt Q8PLP9 1-70); test: EMSA; 10 mM HEPES pH 7.3, 20 mM KCl, 1 mM MgCl2, 1 mM DTT, 5% glycerol, 0.1 µg/µL yeast tRNA, 20 U RNasin, 25 °C 20 min; 5% native PAGE; conditions: protein: recombinant; tags: N-terminal 6xHis (pET-28a, NdeI site); chain copies: 2; label: 3' biotin
T1 sequence (Q8PLP9 whole entry): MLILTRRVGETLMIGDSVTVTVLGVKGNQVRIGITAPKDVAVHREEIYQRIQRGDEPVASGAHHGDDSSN

6HisRsmA (RsmAxcc) [2] = biological target: T1, 6HisRsmA (RsmAxcc); test: EMSA; apparent Kd; 6.25 nM RNA; 10 mM HEPES pH 7.3, 20 mM KCl, 1 mM MgCl2, 1 mM DTT, 5% glycerol, 0.1 µg/µL yeast tRNA, 20 U RNasin, 25 °C 20 min; 5% native PAGE; conditions: protein: recombinant; tags: N-terminal 6xHis (pET-28a, NdeI site); chain copies: 2; label: 3' biotin
6HisRsmA (RsmAxcc) [3] = biological target: T1, 6HisRsmA (RsmAxcc); test: EMSA; 65 nM protein, 6.25 nM RNA; 10 mM HEPES pH 7.3, 20 mM KCl, 1 mM MgCl2, 1 mM DTT, 5% glycerol, 0.1 µg/µL yeast tRNA, 20 U RNasin, 25 °C 20 min; 5% native PAGE; conditions: protein: recombinant; tags: N-terminal 6xHis (pET-28a, NdeI site); chain copies: 2

B1: hrpX (ssRNA)
RNA: GUUAGGCGCCUGUUGUCUUUUGCUCCGCCCCCCAAAGAGAGAGAC
B1: no binding (6HisRsmA (RsmAxcc) [1]).

B2: hrpC (ssRNA)
RNA: GCGCAGCGAUCGCGGAAGGAGAGGGCAAUG
B2: no binding (6HisRsmA (RsmAxcc) [1]).

B3: hrpF (ssRNA)
RNA: GCCCAUCGCGCAGAUUGGCAACAUACGGCUACACCGCAUG
B3: no binding (6HisRsmA (RsmAxcc) [1]).

B4: hrpB (ssRNA)
RNA: GUGUACGGUCCGCAUGUCAUUAAAACGAGGUGCAGUGUG
B4: no binding (6HisRsmA (RsmAxcc) [1]).

B5: hrpG2 (ssRNA)
RNA: ACGAUGCAGCGAUCUUUGAAGAUGGAUUUUGUCCUGGCAUUG
For B5, the Kd (6HisRsmA (RsmAxcc) [2]) was 180 ± 200 nM.

B6: R9-43 (structured_RNA)
RNA: GGGAAUUCAACUCCAUCUAGGCACAAGGAUGUGCCAUAGUACUCAAGCU
B6: binds (6HisRsmA (RsmAxcc) [3]).

B7: hrpG1 (ssRNA)
RNA: AUUCGUCCAGCUCCGCUGGACUCUC
B7: no binding (6HisRsmA (RsmAxcc) [1]).
